Reference: article PMC3378865 (Nucleic Acids Research, 2012)

Target: the molecule itself
Assay: cross-linking

B1: OxyR (PA5344) of Pseudomonas aeruginosa PAO1 with a carboxyl-terminal His-tag (natural protein, UniProt Q9HTL4 1-310, looked up)
chain: MTLTELRYIVTLAQEQHFGRAAERCHVSQPTLSVGVKKLEDELGVLIFERSKSAVRLTPVGEGIVAQAQKVLEQAQGIRELAQAGKNQLAAPLKVGAIYTIGPYLFPHLIPQLHRVAPQMPLYIEENFTHILRDKLRTGELDAIIIALPFQEADVLTKPLFDEPFYVLMPADHPWTAKASIDSELLNDKSLLLLGEGHCFRDQVLEACPTVRKGDENKHTTVESSSLETIRHMVASGLGVSVLPFSAVDSHHYAPGVIEVRPFSAPVPFRTVAIAWRASFPRPRAIEVLADSIRLCSVARPQTQEQPQIA
  stoichiometry N: 2
